This assay addresses Fc6 (recombinant human IgG1 Fc protein) (human). Briefly: SEC; analytical SEC of the Protein A purified reaction products on TSKgel SuperSW3000; native, non-reducing; 50 mM sodium phosphate pH 7.4, 300 mM NaCl, 25 °C. For orientation: SEC sorts molecules by how far they enter the pores of the column.

This is an account of results in article PMC3309923.

In general, stoichiometry N refers to a count of units in the complex or per binding partner. On to “Fc6 (recombinant human IgG1 Fc protein) (domain or fragment)”, for which the stoichiometry N was 2.
